Where two headings read alike, the source gives them in different places.

For orientation: Kd means the equilibrium constant for the complex coming apart. Broadly, the koff is the first-order rate constant of dissociation. Read a high koff as fast dissociation. A word on the kon: it is the second-order rate constant of association. A lower kon goes with slower complex formation. The term EC50 denotes the concentration at which the effect is half-maximal. Higher therefore signals lower potency in that assay. In general, IC50 refers to the midpoint of a concentration-inhibition curve.

Test [1] has as its target T1, His tagged human SIRPα v1 ECD (human, UniProt P78324 31-373).
T1 construct: extracellular domain; not shown: His tag
The test can be described thus: HDX-MS.

Test [2] addresses T2, Full length human SIRPα v1 with beta-gal fragment (ED) at its C-terminal, in K562 cells (human, UniProt P78324 31-504). The test can be described thus: cell-based or functional assay.
For test [3], the target named is T2, Full length human SIRPα v1 with …. The test can be described thus: cell-based or functional assay. The source holds these as a separate data set.
The target in a further test is T3, Human SIRPα v2 (human).
T3 construct: also called human SIRPα v2 (antigen of the Biacore assay)
The test can be described thus: SPR (Biacore), 1:1 binding model. Here is the method:
The humanized antibodies were characterized for binding affinity against human SIRPα v1, human SIRPα v2 using Surface Plasmon Resonance technology (Biacore system). The association and dissociation curves were fit with 1:1 binding model, and the Ka/Kd/KD values for each antibody were calculated.
For orientation: SPR reads the build-up and loss of mass on a sensor chip optically.

In test [4] the target is T4, human SIRPα v1 on CHOK1 cells (human, UniProt P78324 31-504).
T4 construct: whole, on cells; also called CHOK1-hSIRPα v1; cell surface human SIRPα v1
The test can be described thus: FACS, CHOK1 cells stably expressing human SIRPα v1. The text has this: (§1) Binding activity of the purified chimeric antibodies against human SIRPα variants was detected by FACS assay using CHOK1 cells or 293F cells stably expressing human SIRPα v1 and CHOK1 cells stably expressing human SIRPα v2. […] EC₅₀ and top signal calculated using GraphPad Prism9.0.
In general terms: A flow cytometer gives signals particle by particle.

Test [5] addresses T5, human SIRPα v2 on CHOK1 cells (human, UniProt P78324 31-504).
T5 construct: whole, on cells; also called CHOK1-hSIRPα v2; cell surface human SIRPα v2
Kind of test: FACS, CHOK1 cells stably expressing human SIRPα v2.
From the text: as §1

Test [6] addresses T4, human SIRPα v1 on CHOK1 cells. Kind of test: FACS, CHOK1 cells stably expressing human SIRPα v1. The source holds these as a separate data set.
For test [7], the target named is T5, human SIRPα v2 on CHOK1 cells. Kind of test: FACS, CHOK1 cells stably expressing human SIRPα v2. The source holds these as a separate data set.
Test [8] deals with T6, mFc tagged human SIRPα v1 ECD recombinant protein (human, UniProt P78324 31-373).
T6 construct: extracellular domain; not shown: mouse Fc tag
The test can be described thus: competitive ELISA; row antibody in excess in solution, coated mAb 025c. Here is the method: (§2) Competitive ELISA assay was used for epitope binning of purified chimeric antibodies. Briefly excessive competitor antibody and mFc tagged human SIRPα v1 ECD recombinant protein were co-incubated with ELISA microplate coated antibody. After washing, HRP labeled anti-mouse Fc 2nd antibody (Sigma) was added and incubated at 37° C. for 1 hour. Then, 100 μl/well of TMB solution (Biotechnology) was added. After incubation for 15 minutes at room temperature, the reaction was stopped by the addition of 50 μl of 1N HCl. OD 450 nm was read. Competition ratio was calculated. The antibodies that can compete each other for binding to SIRPα may have related binding epitopes.

Test [9] addresses T6, mFc tagged human SIRPα v1 ECD …. The test can be described thus: competitive ELISA; row antibody in excess in solution, coated mAb 042c. Here is the method: as §2
For test [10] the target is unchanged. Kind of test: competitive ELISA; row antibody in excess in solution, coated mAb hu1H9G4. How it is done:
as §2
For orientation: ELISA stands for enzyme-linked immunosorbent assay.

Test [11] deals with T7, human SIRPα v1 ECD recombinant protein (human, UniProt P78324 31-373).
T7 construct: extracellular domain; Coated on the ELISA plate
The test can be described thus: competitive ELISA, plate-coated human SIRPα v1 ECD; blocked ligand: mFc tagged human CD47 ECD. Here is the method: (§3) Competitive ELISA assay was used to determine whether the purified chimeric antibodies can block CD47 and SIRPα interaction. Briefly, antibody and mFc tagged human CD47 ECD recombinant protein were co-incubated with ELISA microplate coated human SIRPα v1 ECD or human SIRPα v2 ECD recombinant protein. The concentration of soluble ECD of CD47 is 25 nM, and the concentration of soluble ECD of SIRPα is 20 nM. After washing, HRP labeled anti-mouse Fc 2nd antibody (Sigma) was added and incubated at 37° C. for 1 hour. Then, 100 μl/well of TMB solution (Biotechnology) was added. After incubation for 15 minutes at room temperature, the reaction was stopped by the addition of 50 μl of 1N HCl. OD 450 nm was read. Blocking ratio was determined by blockade of human SIRPα ECD recombinant protein binding to ELISA microplate coated human CD47 ECD recombinant protein. All antibodies as tested can block interaction between human CD47 and different human SIRPα variants.

Test [12] addresses T8, human SIRPα v2 ECD recombinant protein (human).
T8 construct: extracellular domain; Coated on the ELISA plate
The test can be described thus: competitive ELISA, plate-coated human SIRPα v2 ECD; blocked ligand: mFc tagged human CD47 ECD. Here is the method:
as §3

Test [13] has as its target T7, human SIRPα v1 ECD recombinant protein. Kind of test: competitive ELISA, plate-coated human SIRPα v1 ECD; blocked ligand: mFc tagged human CD47 ECD. Here is the method:
as §3
(§4) The humanized antibodies were tested for the ability to block CD47 and SIRPα interaction with competitive ELISA assay (refer to methods described above).
The source holds these as a separate data set.

Test [14] has as its target T8, human SIRPα v2 ECD recombinant protein. Kind of test: competitive ELISA, plate-coated human SIRPα v2 ECD; blocked ligand: mFc tagged human CD47 ECD. How it is done:
as §3, §4
The source holds these as a separate data set.

The target in test [15] is T7, human SIRPα v1 ECD recombinant protein. The test can be described thus: competitive ELISA, plate-coated human SIRPα v1 ECD; blocked ligand: mFc tagged human CD47 ECD. How it is done: as §3, with “ECD” for “ECD or human SIRPα v2 ECD”, “protein.” for “protein. The concentration of soluble ECD of CD47 is 25 nM, and the concentration of soluble ECD of SIRPα is 20 nM.”, “protein.” for “protein. All antibodies as tested can block interaction between human CD47 and different human SIRPα variants.”
This is another data set of the same source.

The target of test [16] is T4, human SIRPα v1 on CHOK1 cells. Kind of test: competitive FACS, CHOK1 cells stably expressing human SIRPα v1; blocked ligand: mFc tagged human CD47 ECD. How it is done: (§5) Competitive FACS assay was also set up to further compare the blocking activity of the humanized antibodies and some known anti-SIRPα antibodies. Briefly antibody and mFc tagged human CD47 ECD recombinant protein were co-incubated with CHOK1 cells stably expressing human SIRPα v1 or human SIRPα v2. After washing, dye labeled anti-mouse Fc 2nd antibody (Sigma) was added and incubated at 37° C. for 1 hour. Fluorescence intensity was detected. Blocking ratio was determined by blockade of human CD47 ECD recombinant protein binding to SIRPα expressed CHOK1 cells.

Test [17] deals with T5, human SIRPα v2 on CHOK1 cells. The test can be described thus: competitive FACS, CHOK1 cells stably expressing human SIRPα v2; blocked ligand: mFc tagged human CD47 ECD. Here is the method:
as §5

T6 sequence (P78324 31-373): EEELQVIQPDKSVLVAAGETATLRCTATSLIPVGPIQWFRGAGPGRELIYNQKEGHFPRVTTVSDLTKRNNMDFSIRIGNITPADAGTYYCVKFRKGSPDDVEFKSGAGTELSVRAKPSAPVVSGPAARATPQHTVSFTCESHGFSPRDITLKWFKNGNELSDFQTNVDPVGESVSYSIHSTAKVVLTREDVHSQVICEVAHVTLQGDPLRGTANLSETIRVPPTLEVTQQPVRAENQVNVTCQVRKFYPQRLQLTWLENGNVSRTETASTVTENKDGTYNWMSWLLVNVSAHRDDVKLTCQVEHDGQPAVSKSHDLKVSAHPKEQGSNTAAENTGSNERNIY
T7 sequence (P78324 31-373): as above
T4 sequence (P78324 31-504): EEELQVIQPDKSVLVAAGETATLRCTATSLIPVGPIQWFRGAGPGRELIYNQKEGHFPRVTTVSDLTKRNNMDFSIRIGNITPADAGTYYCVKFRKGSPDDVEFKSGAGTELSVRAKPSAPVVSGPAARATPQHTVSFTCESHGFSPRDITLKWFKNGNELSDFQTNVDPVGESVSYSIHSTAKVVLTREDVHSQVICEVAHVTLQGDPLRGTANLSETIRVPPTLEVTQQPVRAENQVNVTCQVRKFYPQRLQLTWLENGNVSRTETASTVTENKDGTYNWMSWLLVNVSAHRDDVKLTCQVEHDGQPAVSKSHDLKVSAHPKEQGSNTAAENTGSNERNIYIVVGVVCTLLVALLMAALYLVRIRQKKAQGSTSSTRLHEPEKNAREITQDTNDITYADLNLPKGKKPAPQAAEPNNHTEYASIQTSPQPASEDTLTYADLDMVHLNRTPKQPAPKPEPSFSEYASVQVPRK
T2 sequence (P78324 31-504): as above
T5 sequence (P78324 other isoform, or with tags, fused parts or gaps limits assumed): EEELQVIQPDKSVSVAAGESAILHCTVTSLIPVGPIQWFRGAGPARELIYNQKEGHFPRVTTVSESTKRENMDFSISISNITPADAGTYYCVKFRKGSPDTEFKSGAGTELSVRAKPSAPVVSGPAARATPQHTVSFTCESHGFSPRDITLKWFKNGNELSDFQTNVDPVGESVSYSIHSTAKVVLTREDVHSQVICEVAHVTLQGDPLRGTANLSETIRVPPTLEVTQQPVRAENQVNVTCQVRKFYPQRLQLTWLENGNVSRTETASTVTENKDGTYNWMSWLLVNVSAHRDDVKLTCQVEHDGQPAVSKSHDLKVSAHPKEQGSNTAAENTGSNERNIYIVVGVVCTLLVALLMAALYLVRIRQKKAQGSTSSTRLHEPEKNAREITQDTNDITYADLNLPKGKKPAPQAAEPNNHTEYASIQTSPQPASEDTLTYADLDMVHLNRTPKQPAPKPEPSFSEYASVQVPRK
T1 sequence (P78324 31-373): as the sequence (P78324 31-373) above

B1: Reference anti-SIRPα antibody HEFLB (antibody, human IgG4, V domains shown)
VH: EVQLVQSGAEVKKPGESLRISCKASGYSFTSYWVHWVRQMPGKGLEWMGNIDPSDSDTHYSPSFQGHVTLSVDKSISTAYLQLSSLKASDTAMYYCVRGGTGTLAYFAYWGQGTLVTVSS
VL: DVVMTQSPLSLPVTLGQPASISCRSSQSLVHSYGNTYLYWFQQRPGQSPRLLIYRVSNRFSGVPDRFSGSGSGTDFTLKISRVEAEDVGVYYCFQGTHVPYTFGGGTKVEIK
Turning to B1, the binding result in test [1] was “binds”.

B2: Anti-SIRPα antibody C25 (antibody, V domains shown)
VH: EVQLQQSGAELVKPGASVKLSCTASGFNIKDYYMHWVKQRTEQGLEWIGRIDPEDGETKYAPKFQGKATITADTSSNTAYLQLSSLTSEDTAVYYCDRGLAYWGQGTLVTVSA
VL: QIVLTQSPAIMSASPGEKVTLTCSASSSVSSSYLYWYQQKPGSSPKLWIYSTSNLASGVPARFSGSGSGTSYSLTISSMEAEDAASYFCHQWSSYPYTFGGGTKLEIK
notes: Mouse variable regions; also called 025c; 025
B2: the “IC50 (SHP-1 recruitment blocking)” value in [2] came to 0.28 nM; in test [3], 0.08 nM. Moreover, the “TOP blocking (SHP-1 recruitment)” value in test [2] is 84.5%; in [3], 87%. Further, in the test with Human SIRPα v2, the Kd stood at 1.69 nM. In the test with Human SIRPα v2, this molecule came in with a koff of 0.00254 s⁻¹. This molecule also had an on-rate (kon) with Human SIRPα v2 of 1.51e+06 M⁻¹ s⁻¹. Moreover, the EC50 in [4] was 1.49 nM; in [5], 1.34 nM; in test [6] it was 1.22 nM; in [7] it was 0.99 nM. The “TOP MFI” value in test [4] was found to be 77600 MFI; in test [5], 51600 MFI; in [6], 64700 MFI; in [7], 53000 MFI. Besides, the “% Competition” value in [8] stood at 93.5%; in [9], 19.1%; in test [10], 15.3%. Further, the IC50 in [11] stood at 2.12 nM; in [12], 2.21 nM; in [13], 2.03 nM; in [14], 1.86 nM; in test [16], 0.4 nM; in [17], 0.63 nM. Further, the TOP blocking in test [11] came to 96.5%; in [12] it was 96.5%; in test [13] it was 97.5%; in test [14], 98.6%; in test [16] it was 97.6%; in test [17], 99.7%. For the same molecule, the “IC50 (read off the curve)” value in test [15] is around 2 nM.

Source of the values: patent publication US20240336686A1 (ELPISCIENCE SUZHOU BIOPHARMA, published 2024).
